In paper PMC4951694:

What was measured:
Assay in all cases: ITC; 10 μM β3 peptide in the sample cell titrated with αIIb peptide; bicelles of 43 mM DHPC, 17 mM POPC, 25 mM NaH2PO4/Na2HPO4 pH 7.4, 28 °C; stoichiometry fixed at 1:1
[1] = molecular target: integrin β3(A711P) TM peptide (human) (UniProt P05106)
[2] = molecular target: integrin β3(A711P/L712A) TM peptide (human) (UniProt P05106)
[3] = molecular target: integrin β3(A711P/W715Y) TM peptide (human) (UniProt P05106)
[4] = molecular target: integrin β3(L712A) TM peptide (human) (UniProt P05106)
[5] = molecular target: integrin β3(W715Y) TM peptide (human) (UniProt P05106)
[6] = molecular target: integrin β3 TM peptide (human) (UniProt P05106)

Substance | KXY [1] | dH [1] [kcal/mol] | KXY [2] | dH [2] [kcal/mol] | KXY [3] | dH [3] [kcal/mol] | KXY [4] | dH [4] [kcal/mol] | KXY [5] | dH [5] [kcal/mol] | KXY [6] | dH [6] [kcal/mol]
integrin αIIb TM peptide (from UniProt P08514 989-1029) | 12700 | -16.9 | 4200 | -12.8 | 2200 | -14.4 | 1900 | -12 | 1300 | -14.2 | – | –
integrin αIIb(G972A) TM peptide (from UniProt P08514 989-1029) | 5500 | -16.2 | – | – | – | – | – | – | – | – | 1080 | -14.2
integrin αIIb(R995A) TM peptide (from UniProt P08514 989-1029) | 4000 | -5.6 | – | – | – | – | – | – | – | – | – | –
